The chains are these.
B1: VH Y30H (antibody, V domains shown)
VH: EVQLVESGGGLVQPGGSLRLSCAASGFNIHYNYIHWVRQAPGKGLEWVAEFSPYSGSTYYADSVKGRFTISADTSKNTAYLQMNSLRAEDTAVYYCARSAAIVDWYDYFKGFDYWGQGTLVTVSS
VL: DIQMTQSPSSLSASVGDRVTITCRASQSVSSAVAWYQQKPGKAPKLLIYSASSLYSGVPSRFSGSRSGTDFTLTISSLQPEDFATYYCQQYGSYLYTFGQGTKVEIK
B2: anti-GCGR IgG1 parent (antibody, V domains shown)
VH: B1 VH with H30Y
VL: B1 VL
B3: VL Y94K (antibody, V domains shown)
VH: B1 VH with H30Y
VL: B1 VL with Y94K
B4: VH W100aL (antibody, V domains shown)
VH: B1 VH with H30Y, W105L
VL: B1 VL
B5: VH W100aF (antibody, V domains shown)
VH: B1 VH with H30Y, W105F
VL: B1 VL
B6: VH W100aV (antibody, V domains shown)
VH: B1 VH with H30Y, W105V
VL: B1 VL
B7: VH Y100bR (antibody, V domains shown)
VH: B1 VH with H30Y, Y106R
VL: B1 VL
B8: VH Y100bQ (antibody, V domains shown)
VH: B1 VH with H30Y, Y106Q
VL: B1 VL
B9: VH Y100bK (antibody, V domains shown)
VH: B1 VH with H30Y, Y106K
VL: B1 VL
B10: VH Y100bH (antibody, V domains shown)
VH: B1 VH with H30Y, Y106H
VL: B1 VL
B11: VH Y33A (antibody, V domains shown)
VH: B1 VH with H30Y, Y33A
VL: B1 VL
B12: VH W100aA (antibody, V domains shown)
VH: B1 VH with H30Y, W105A
VL: B1 VL
B13: VL Y91A (antibody, V domains shown)
VH: B1 VH with H30Y
VL: B1 VL with Y91A
B14: VH Y31A (antibody, V domains shown)
VH: B1 VH with H30Y, Y31A
VL: B1 VL
B15: VH W100aK (antibody, V domains shown)
VH: B1 VH with H30Y, W105K
VL: B1 VL
B16: VH Y59A (antibody, V domains shown)
VH: B1 VH with H30Y, Y59A
VL: B1 VL
B17: VH F51A (antibody, V domains shown)
VH: B1 VH with H30Y, F51A
VL: B1 VL
B18: VH Y54A (antibody, V domains shown)
VH: B1 VH with H30Y, Y54A
VL: B1 VL
B19: VL Y96A (antibody, V domains shown)
VH: B1 VH with H30Y
VL: B1 VL with Y96A
B20: VL Y55A (antibody, V domains shown)
VH: B1 VH with H30Y
VL: B1 VL with Y55A

Changes are numbered by the printed parent chain. Names may count otherwise.

For the first assay, the target named is T1, GCGR extracellular domain (human, UniProt P47871). Description: SPR.
T1 sequence (P47871 26-477): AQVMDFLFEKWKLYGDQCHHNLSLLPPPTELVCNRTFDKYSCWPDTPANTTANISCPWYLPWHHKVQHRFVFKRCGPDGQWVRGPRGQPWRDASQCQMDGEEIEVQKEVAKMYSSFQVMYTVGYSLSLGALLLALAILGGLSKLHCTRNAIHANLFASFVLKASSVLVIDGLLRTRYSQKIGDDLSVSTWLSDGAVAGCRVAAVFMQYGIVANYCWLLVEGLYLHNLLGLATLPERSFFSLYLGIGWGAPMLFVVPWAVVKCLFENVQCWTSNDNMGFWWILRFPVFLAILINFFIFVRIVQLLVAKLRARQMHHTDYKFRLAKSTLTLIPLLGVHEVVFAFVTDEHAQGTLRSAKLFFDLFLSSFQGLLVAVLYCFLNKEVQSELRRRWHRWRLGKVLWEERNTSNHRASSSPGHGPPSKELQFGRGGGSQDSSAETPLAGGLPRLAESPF
As to B1, binding was put at a Kd of 5.14 nM.

The molecule B2 registered a Kd of 2.53 nM.

In turn, B3 registered a Kd of 1.6 nM.

Take B4: binding was put at a Kd of 5.24 nM.

As for B5, the Kd came out at 5.2 nM.

The molecule B6 yielded a Kd of 5.88 nM.

Regarding B7, binding was characterised by a dissociation constant (Kd) of 7.08 nM.

Take B8: the Kd amounted to 6.08 nM.

In turn, B9 registered a Kd of 7.75 nM.

B10 registered a dissociation constant (Kd) of 2.9 nM.

A further assay concerns the target T1, GCGR extracellular domain. Put plainly: SPR. This is another data set of the same source. For orientation: SPR reads the build-up and loss of mass on a sensor chip optically.
With B1, the dissociation constant Kd is 5.14 nM.

In turn, B2 displayed a Kd of 2.53 nM.

B11 returned a Kd of 267 nM.

B3: binding was put at a Kd of 1.6 nM.

In turn, B4 showed a Kd of 5.24 nM.

The molecule B5 had a Kd of 5.2 nM.

In turn, B6 displayed a Kd of 5.88 nM.

B12 had a Kd of 16.3 nM.

In the case of B13, the equilibrium dissociation constant (Kd) was found to be 98.5 nM.

In turn, B7 displayed a dissociation constant Kd of 7.08 nM.

Molecule B8 displayed a Kd of 6.08 nM.

In turn, B9 gave a Kd of 7.75 nM.

Take B10: the Kd is 2.9 nM.

The target in the next assay is T1, GCGR extracellular domain. Put plainly: SPR. The source holds these as a separate data set.
B14: the binding result is listed as “no binding”.

As to B15, the binding result was “no binding”.

Another assay concerns the target T1, GCGR extracellular domain. Put plainly: SPR. This is another data set of the same source.
Take B2: the Kd stood at 0.61 nM.

For the molecule B11, the Kd was 53 nM.

B14 gave a Kd of 206 nM.

Molecule B16 yielded a Kd of 0.32 nM.

On to B12, for which the affinity, expressed as Kd, was 11 nM.

Regarding B13, the Kd turned out to be 0.84 nM.

Consider B17, for which binding was characterised by a dissociation constant (Kd) of 1.5 nM.

B18 showed a Kd of 46 nM.

With B19, the Kd stood at 0.93 nM.

B20 came in with a Kd of 0.74 nM.

What is called Kd is the concentration at which binding is half-saturated.
